B1: Flag-DAPk (N-terminal Flag-tagged human full-length death-associated protein kinase) (enzyme)
chain: MTVFRQENVDDYYDTGEELGSGQFAVVKKCREKSTGLQYAAKFIKKRRTKSSRRGVSREDIEREVSILKEIQHPNVITLHEVYENKTDVILILELVAGGELFDFLAEKESLTEEEATEFLKQILNGVYYLHSLQIAHFDLKPENIMLLDRNVPKPRIKIIDFGLAHKIDFGNEFKNIFGTPEFVAPEIVNYEPLGLEADMWSIGVITYILLSGASPFLGDTKQETLANVSAVNYEFEDEYFSNTSALAKDFIRRLLVKDPKKRMTIQDSLQHPWIKPKDTQQALSRKASAVNMEKFKKFAARKKWKQSVRLISLCQRLSRSFLSRSNMSVARSDDTLDEEDSFVMKAIIHAINDDNVPGLQHLLGSLSNYDVNQPNKHGTPPLLIAAGCGNIQILQLLIKRGSRIDVQDKGGSNAVYWAARHGHVDTLKFLSENKCPLDVKDKSGEMALHVAARYGHADVAQLLCSFGSNPNIQDKEEETPLHCAAWHGYYSVAKALCEAGCNVNIKNREGETPLLTASARGYHDIVECLAEHGADLNACDKDGHIALHLAVRRCQMEVIKTLLSQGCFVDYQDRHGNTPLHVACKDGNMPIVVALCEANCNLDISNKYGRTPLHLAANNGILDVVRYLCLMGASVEALTTDGKTAEDLARSEQHEHVAGLLARLRKDTHRGLFIQQLRPTQNLQPRIKLKLFGHSGSGKTTLVESLKCGLLRSFFRRRRPRLSSTNSSRFPPSPLASKPTVSVSINNLYPGCENVSVRSRSMMFEPGLTKGMLEVFVAPTHHPHCSADDQSTKAIDIQNAYLNGVGDFSVWEFSGNPVYFCCYDYFAANDPTSIHVVVFSLEEPYEIQLNQVIFWLSFLKSLVPVEEPIAFGGKLKNPLQVVLVATHADIMNVPRPAGGEFGYDKDTSLLKEIRNRFGNDLHISNKLFVLDAGASGSKDMKVLRNHLQEIRSQIVSVCPPMTHLCEKIISTLPSWRKLNGPNQLMSLQQFVYDVQDQLNPLASEEDLRRIAQQLHSTGEINIMQSETVQDVLLLDPRWLCTNVLGKLLSVETPRALHHYRGRYTVEDIQRLVPDSDVEELLQILDAMDICARDLSSGTMVDVPALIKTDNLHRSWADEEDEVMVYGGVRIVPVEHLTPFPCGIFHKVQVNLCRWIHQQSTEGDADIRLWVNGCKLANRGAELLVLLVNHGQGIEVQVRGLETEKIKCCLLLDSVCSTIENVMATTLPGLLTVKHYLSPQQLREHHEPVMIYQPRDFFRAQTLKETSLTNTMGGYKESFSSIMCFGCHDVYSQASLGMDIHASDLNLLTRRKLSRLLDPPDPLGKDWCLLAMNLGLPDLVAKYNTSNGAPKDFLPSPLHALLREWTTYPESTVGTLMSKLRELGRRDAADFLLKASSVFKINLDGNGQEAYASSCNSGTSYNSISSVVSR
notes: bait in anti-Flag immunoprecipitation; also called full length DAPk; not shown: N-terminal Flag tag
B2: DAP1-Flag (C-terminal Flag-tagged death-associated protein 1) (other, UniProt P51397 2-102, looked up)
chain: SSPPEGKLETKAGHPPAVKAGGMRIVQKHPHTGDTKEEKDKDDQEWESPSPPKPTVFISGVIARGDKDFPPAAAQVAHQKPHASMDKHPSPRTQHIQQPRK
notes: Irrelevant Flag-tagged control protein; not shown: C-terminal Flag tag

Assays:
[1] = target: the molecule itself; test: analytical size exclusion chromatography (Superdex 200) of immunopurified Flag-DAPk
From the text: Immunopurified Flag-DAPk was loaded onto an analytical Superdex™ 200 10/300 (GE Healthcare) gel-filtration column equilibrated with TBS. The eluting protein was detected by UV absorbance at 280 nm. Fractions were collected using the AKTA Prime fraction collector and analyzed by Western blot with anti-Flag antibodies. The migration position of the fractions containing Flag-DAPk was assigned relative to the migration position of Gel Filtration Calibration HMW standards (GE Healthcare) on the same column.
It elutes in two clearly defined peaks corresponding to ˜640 kDa and ˜320 kDa (FIG. 1D). […] Furthermore, the absence of a peak at the 160 kDa size range excluded the existence of monomers under native conditions. Fractions were collected at indicated elution points and submitted to western blot analysis, confirming DAPk identity at the selected peaks (FIG. 1E).

[2] = target: T1, HA-DAPk (N-terminal hemaglutinin-tagged human full-length death-associated protein kinase) (human, UniProt P53355 1-1430); test: co-immunoprecipitation with anti-Flag beads from co-transfected HEK 293T cells, western blot (FIG. 2B)
T1 construct: also called HA-DAPk (WT); DAPk WT; not shown: N-terminal HA (hemaglutinin) tag
Protocol: FIG. 2A, Schematic representation of the different DAPk constructs utilized for mapping DAPk homo-oligomerization. The indicated domains: Kinase domain (KD); Ca⁺²/Calmodulin binding region (CaM); Ankyrin repeats (AK); P-Loop; Ras of complex proteins domain (ROC); C-terminal of ROC domain (COR); Death domain (DD); and Serine (Ser) rich tail. […] Immunoprecipitation with anti-Flag beads (IP-α-Flag) was performed and immuno-complexes and cell extracts were analyzed by western blot. FIG. 2C, Cells co-transfected with Flag-DAPk and one of the different HA-tagged DAPk constructs, namely HA-DAPk (WT), HA-ΔROC—a deletion between amino acids 667-954; HA-ΔKinase—a N-terminal deletion (1-285); and ΔROC/ΔKinase—deletion of both KD (1-285) and ROC domain (667-954). Immunoprecipitation and western blot were performed as in B. FIG. 2D, Cells co-transfected with Flag-ROC and HA-ROC; HA-ROC and Flag-ROC-Δ-P-loop; Flag-ROC and HA-DAPk (WT); Flag-ROC-Δ-P-Loop and HA-DAPk (WT); or HA-ROC and DAP1-Flag.
Immunoprecipitation with anti-Flag beads (IP-α-Flag) was performed and immuno-complexes and cell extracts were analyzed by western blot. […] Thus, ROC fragment by itself is sufficient to bind the full length DAPk. Also the ROC fragments interacted with each other (FIG. 2D). […] Together the experiments in FIG. 2B-D established the role of the ROC domain in mediating homo-oligomerization.

Row | Binder | binding result [1] | binding result [2]
1 | B1 | binds | –
2 | B2 | – | no binding

From patent publication US20130266582A1 (YEDA RESEARCH AND DEVELOPMENT, published 2013)
